Key:
Conditions in all cases: remark: other sources report otherwise
[1] = target: recombinant soluble homotrimeric HA of A/Japan/305/57 (H2N2) (Influenza A virus A/Japan/305/1957(H2N2)); experiment: HA microarray, BCC supernatant
[2] = target: recombinant soluble homotrimeric HA of A/Netherlands/219/03 (H7N7) (Influenza A virus A/Netherlands/219/03(H7N7)); experiment: HA microarray, BCC supernatant
[3] = target: recombinant soluble homotrimeric HA of A/Solomon Islands/3/06 (H1N1) (Influenza A virus A/Solomon Islands/3/2006(H1N1)); experiment: HA microarray, BCC supernatant
[4] = target: recombinant soluble homotrimeric HA of A/Wisconsin/67/05 (H3N2) (Influenza A virus A/Wisconsin/67/2005(H3N2)); experiment: HA microarray, BCC supernatant
[5] = target: recombinant soluble homotrimeric HA of A/chicken/Vietnam/NCVD-016/08 (H5N1) (Influenza A virus A/chicken/Vietnam/NCVD-016/2008(H5N1)); experiment: HA microarray, BCC supernatant
[6] = target: recombinant soluble homotrimeric HA of A/swine/Ontario/01911-2/99 (H4N6) (Influenza A virus A/Swine/Ontario/01911-2/99 (H4N6)); experiment: HA microarray, BCC supernatant
[7] = target: recombinant soluble homotrimeric HA, A/Japan/305/57 H2N2 (Influenza A virus A/Japan/305/1957(H2N2)); experiment: microarray, transfection SN IgG, trimeric HA
[8] = target: recombinant soluble homotrimeric HA, A/Netherlands/219/03 H7N7 (Influenza A virus A/Netherlands/219/03(H7N7)); experiment: microarray, transfection SN IgG, trimeric HA
[9] = target: recombinant soluble homotrimeric HA, A/South Carolina/1/18 H1N1 (Influenza A virus A/South Carolina/1/18 (H1N1)); experiment: microarray, transfection SN IgG, trimeric HA
[10] = target: recombinant soluble homotrimeric HA, A/Wisconsin/67/05 H3N2 (Influenza A virus A/Wisconsin/67/2005(H3N2)); experiment: microarray, transfection SN IgG, trimeric HA
[11] = target: recombinant soluble homotrimeric HA, A/chicken/Vietnam/NCVD-016/08 H5N1 (Influenza A virus A/chicken/Vietnam/NCVD-016/2008(H5N1)); experiment: microarray, transfection SN IgG, trimeric HA
[12] = target: recombinant soluble homotrimeric HA, A/duck/Yangzhou/02/05 H8N4 (Influenza A virus A/duck/Yangzhou/02/2005(H8N4)); experiment: microarray, transfection SN IgG, trimeric HA
[13] = target: recombinant soluble homotrimeric HA, A/northern shoveler/California/HKWF115/07 H6N4 (Influenza A virus A/northern shoveler/California/HKWF115/2007(H6N1)); experiment: microarray, transfection SN IgG, trimeric HA
[14] = target: recombinant homotrimeric HA A/Hong Kong/1073/99 H9N2 (Influenza A virus A/Hong Kong/1073/99 (H9N2)); experiment: protein microarray, purified IgG, trimeric HA
[15] = target: recombinant homotrimeric HA A/Japan/305/57 H2N2 (Influenza A virus A/Japan/305/1957(H2N2)); experiment: protein microarray, purified IgG, trimeric HA
[16] = target: recombinant homotrimeric HA A/Netherlands/219/03 H7N7 (Influenza A virus A/Netherlands/219/03(H7N7)); experiment: protein microarray, purified IgG, trimeric HA
[17] = target: recombinant homotrimeric HA A/Solomon Islands/3/06 H1N1 (Influenza A virus A/Solomon Islands/3/2006(H1N1)); experiment: protein microarray, purified IgG, trimeric HA
[18] = target: recombinant homotrimeric HA A/South Carolina/1/18 H1N1 (Influenza A virus A/South Carolina/1/18 (H1N1)); experiment: protein microarray, purified IgG, trimeric HA
[19] = target: recombinant homotrimeric HA A/Wisconsin/67/05 H3N2 (Influenza A virus A/Wisconsin/67/2005(H3N2)); experiment: protein microarray, purified IgG, trimeric HA
[20] = target: recombinant homotrimeric HA A/chicken/Vietnam/NCVD-016/08 H5N1 (Influenza A virus A/chicken/Vietnam/NCVD-016/2008(H5N1)); experiment: protein microarray, purified IgG, trimeric HA
[21] = target: recombinant homotrimeric HA A/duck/Yangzhou/02/05 H8N4 (Influenza A virus A/duck/Yangzhou/02/2005(H8N4)); experiment: protein microarray, purified IgG, trimeric HA
[22] = target: recombinant trimeric HA of H1N1 A/California/04/09 (Influenza A virus A/California/04/2009 (H1N1))
[23] = target: recombinant soluble homotrimeric HA of A/Anhui/1/05 (H5N1) (Influenza A virus A/Anhui/1/2005(H5N1)); experiment: HA microarray, BCC supernatant
[24] = target: recombinant soluble homotrimeric HA of A/Egypt/3300-NAMRU3/08 (H5N1) (Influenza A virus A/Egypt/3300-NAMRU3/2008(H5N1)); experiment: HA microarray, BCC supernatant
[25] = target: recombinant soluble homotrimeric HA of A/Hong Kong/2108/03 (H9N2) (Influenza A virus A/HK/2108/2003(H9N2)); experiment: HA microarray, BCC supernatant
[26] = target: recombinant soluble homotrimeric HA of A/Indonesia/5/05 (H5N1) (Influenza A virus A/Indonesia/5/2005(H5N1)); experiment: HA microarray, BCC supernatant
[27] = target: recombinant soluble homotrimeric HA of A/northern shoveler/California/HKWF115/07 (H6) (Influenza A virus A/northern shoveler/California/HKWF115/2007(H6N1)); experiment: HA microarray, BCC supernatant

B1: TCN-554 (5277_M05) (antibody, V domains shown)
VH: QVQLVQSGADLKKPGASVKVSCKASGYTFTDYYIHWVRQAPGQGLEWMGWINPESGDTKYAQKFQGRVTMTRDTSITTAYMELGRLRSDDTAVYYCARDVSTTWSWFAPWGQGTLVTVSS
VL: DIVMTQSPDSLAVSLGERATINCRSSQSIFHNSNNENYLAWYQQKPGQPPKLLIYWASTRESGVPDRFSGSGSGTDFTLTISSLQAEDVAVYFCQQYYNAPLTFGGGTKVEIK
With B1 the Trimeric HA Binding: RLU [1] was 328 RLU, the Trimeric HA Binding: RLU [2] was 610 RLU and the Trimeric HA Binding: RLU [3] was 115 RLU. For the same binder, the Trimeric HA Binding: RLU [4] was 46500 RLU, the Trimeric HA Binding: RLU [5] was 250 RLU and the Trimeric HA Binding: RLU [6] was 78 RLU. The Trimeric HA Binding: RLU [7] was 2620 RLU, the Trimeric HA Binding: RLU [8] was 4520 RLU and the Trimeric HA Binding: RLU [9] was 1260 RLU. It also gave a Trimeric HA Binding: RLU [10] of 25300 RLU, a Trimeric HA Binding: RLU [11] of 2710 RLU and a Trimeric HA Binding: RLU [12] of 5810 RLU. The Trimeric HA Binding: RLU [13] was 3350 RLU, the Trimeric HA Binding: RLU [14] was 539 RLU and the Trimeric HA Binding: RLU [15] was 705 RLU. It also gave a Trimeric HA Binding: RLU [16] of 342 RLU, a Trimeric HA Binding: RLU [17] of 1540 RLU and a Trimeric HA Binding: RLU [18] of 166 RLU. For the same binder, the Trimeric HA Binding: RLU [19] was 27100 RLU, the Trimeric HA Binding: RLU [20] was 544 RLU and the Trimeric HA Binding: RLU [21] was 386 RLU.

B2: Fab fragment of TCN-523 (5248_A17) (Fab, V domains shown)
VH: QVQLVQSGAEVKKPGSSVKVSCKASGGSFSNYAFSWVRQAPGQGLEWMGGTIPLLGTTNYAQKFQGRVTISADQFTSTAYMELGSLRSEDTAVYYCTRRKMTTAFDSWGQGTLVTVSS
VL: QPVLTQPPSASASLGASVTLTCTLSSAYSNYKVDWYQQRPGKGPRFVMRVGTGGIVGSKGDGIPDRFSVLGSGLNRYLTIKNIQEEDESDYHCGADHGSGSNFVSPYVFGGGTKLTVL
In the case of B2, the Kd [22] is reported as 0.09 nM, the koff [22] is reported as 5.1e-05 s⁻¹ and the kon [22] is reported as 540000 M⁻¹ s⁻¹.

B3: Fab fragment of TCN-535 (5246_P19) (Fab, V domains shown)
VH: QVQLVQSGSEVKKPGTSVKVSCTASGSVFTNYGISWVRQAPGQGLEWMGGIIPLFGAAKYAQKFQGRVTITADESTKTVYMELSRLTSKDTAIYFCAKAPRVYEYYFDQWGQGTPVTVSS
VL: EIVLTQSPGTLSLSPGERATLSCRASQSVSSSQLAWYQQKPGQAPRLIIYGASTRATGIPDRFSGSGSGTDFTLTIGRLEPEDFAVFFCQQYSTSPPTFGQGTKVDFK
With B3 the Kd [22] was 0.165 nM, the koff [22] was 0.000163 s⁻¹ and the kon [22] was 987000 M⁻¹ s⁻¹.

B4: Fab fragment of TCN-530 (5248_H10a) (Fab, V domains shown)
VH: QVQLVQSGAEVRKPGSSVKVSCKASGGPFMSYAIGWVRQAPGQGLEWMGGINPVFGRPHYAQKFQGRVTIATDDSTKTSYMELSSLTSEDTGMYYCASRYSRSSPGTFESWGQGTLVTVSS
VL: EIVMTQFPATLSVSPGERVTLSCRASQSVSNNLAWYQQKPGQPPRLLIYDASTRATGVPAKFSGTGSGTEFTLSISSLQSEDFAVYYCQQYHNWPPSYSFGLGTKLEIK
B4 was tested, and the Kd [22] was 0.562 nM, the koff [22] was 0.000287 s⁻¹ and the kon [22] was 511000 M⁻¹ s⁻¹.

B5: Fab fragment of TCN-534 (5249_B02) (Fab, V domains shown)
VH: QVQLVQSGAEVKKPGSSVKVSCRESGGTFNGYTITWVRQAPGQGLEWMGGIIPMMGTVNYAQKLQGRVTITTDYFTKTAYMDLNNLRSEDTAMYYCVKIRYTGQQLLWGQGTLVTVSS
VL: DIQMTQSPSTLSASIGDRVTITCRASQSIASWLAWYQQKPGKAPKLLIYEAVNLESGVPSRFSGSGSGTDFTLTISSLQPDDFATYFCQHYGTISQTFGGGTKVEIK
In the case of B5, the Kd [22] is reported as 0.104 nM, the koff [22] is reported as 5.96e-05 s⁻¹ and the kon [22] is reported as 573000 M⁻¹ s⁻¹.

B6: Fab fragment of TCN-522 (3212_I12) (Fab, V domains shown)
VH: QVQLQQWGAGLLKPSETLSLTCTVSGGSLTDYSWNWIRQPPGKGLEWIGDTLHNGYTNYNPSLRGRVSISIDTSKNQVSLRLTSVTAADTALYYCARGSGGYGGFDYFGKLRTWDFWGQGTLVTVSS
VL: DIQLTQSPSSLSASVGDRVTITCRASQGIRNDLGWYQQKPGNAPKRLIFGASSLQSGVPSRFSGSGSGTEFTLTISSLQPEDFATYYCLQHNSYPYTFGQGTKLEIK
In the case of B6, the Kd [22] is reported as 0.55 nM, the koff [22] is reported as 3.8e-05 s⁻¹ and the kon [22] is reported as 69800 M⁻¹ s⁻¹.

B7: TCN-521 (3280_D18) (antibody, V domains shown)
VH: EVQLVQSGGGLVQPGGSLRLACVVSGFTVTSNYITWVRQAPGKGLEWVSVIYSHGRAYYSASVNGRFTISRHTSKNTVYLEMNSLRPEDTAVYYCAGGGLVGGYDEYFFDYWGQGTLATVSS
VL: ETVLTQSPGTLSLTPGERATLSCRVGQSVSGSHLAWYQQKPGQAPRLLIYGASSRATGIPDRFGGSVSGTDFTLTISRLEPEDSAVYYCQQYGDSRYTFGQGTKLEIK
B7 was tested, and the Trimeric HA Binding: RLU [23] was 487 RLU, the Trimeric HA Binding: RLU [24] was 47900 RLU and the Trimeric HA Binding: RLU [25] was 93 RLU. It also gave a Trimeric HA Binding: RLU [26] of 31500 RLU, a Trimeric HA Binding: RLU [1] of 6730 RLU and a Trimeric HA Binding: RLU [2] of 2500 RLU. The Trimeric HA Binding: RLU [3] was 39600 RLU, the Trimeric HA Binding: RLU [5] was 32400 RLU and the Trimeric HA Binding: RLU [27] was 48000 RLU.

Reference: patent US20150086555A1
